Data set [1] has as its target T1, Replication Protein A (RPA), 70 kDa subunit RPA1 (Homo sapiens, UniProt P27694).
T1 construct: Full-length human (h)RPA heterotrimer, unmodified (Um-RPA); with RPA2 and RPA3 (RPA heterotrimer)
Briefly: RPAi titration of purified Um-RPA binding to ssDNA (gel data, Fig. S6).

The target in another data set is RPA1 DBD-F, unmodified (Homo sapiens, UniProt P27694 1-180). Briefly: EMSA; 25-150 nM protein, 25 nM DNA; EMSA: 50 mM Tris-HCl pH 8.0, 2 mM DTT, 30 mM NaCl, 0.1 mg/ml BSA, 5% glycerol, 10 min 37 °C; FEN1/RPA flap EMSA: same with 20 mM NaCl, 20 uM EDTA; BLI: 1X HAT buffer, 31.25-250 nM RPA. The conditions noted are these: protein: recombinant; tags: C-terminal His6; label: 5'-TAMRA; single strand.

The target of a further data set is FEN1 (UniProt P39748 1-380). Briefly: EMSA; 50 nM FEN1, 20 uM EDTA; high-affinity binding; EMSA: 50 mM Tris-HCl pH 8.0, 2 mM DTT, 30 mM NaCl, 0.1 mg/ml BSA, 5% glycerol, 10 min 37 °C; FEN1/RPA flap EMSA: same with 20 mM NaCl, 20 uM EDTA; BLI: 1X HAT buffer, 31.25-250 nM RPA. The settings on record: protein: recombinant; double flap: 20 nt 5' flap (strand 2), 1 nt 3' flap (strand 3); 1:2 1:3; 1 nt 5' overhang on strand 1.

The target of data set [2] is T2, Um-RPA (unmodified RPA heterotrimer) (Homo sapiens, UniProt P27694;P15927;P35244 1-616;1-270;1-121). As to the kind of experiment: BLI; KD only in Fig. 4D; smallest fold difference to Ac-RPA; EMSA: 50 mM Tris-HCl pH 8.0, 2 mM DTT, 30 mM NaCl, 0.1 mg/ml BSA, 5% glycerol, 10 min 37 °C; FEN1/RPA flap EMSA: same with 20 mM NaCl, 20 uM EDTA; BLI: 1X HAT buffer, 31.25-250 nM RPA. The settings on record: protein: recombinant; copies: 1;1;1; label: 3'-biotin (BLI); 5'-TAMRA (EMSA); single strand.

For data set [3], the target named is T2, Um-RPA (unmodified RPA heterotrimer). As to the kind of experiment: BLI; KD only in Fig. 4D; higher KD than Ac-RPA; EMSA: 50 mM Tris-HCl pH 8.0, 2 mM DTT, 30 mM NaCl, 0.1 mg/ml BSA, 5% glycerol, 10 min 37 °C; FEN1/RPA flap EMSA: same with 20 mM NaCl, 20 uM EDTA; BLI: 1X HAT buffer, 31.25-250 nM RPA. The settings on record: protein: recombinant; copies: 1;1;1; label: 3'-biotin (BLI); 5'-32P (EMSA); single strand.

The results in this text go back to article PMC12182300, “Biochemical impact of p300-mediated acetylation of replication protein A: Implications for DNA metabolic pathway choice” (The Journal of Biological Chemistry, 2025).

T2 sequence (P27694 whole entry, chain 1 of 3): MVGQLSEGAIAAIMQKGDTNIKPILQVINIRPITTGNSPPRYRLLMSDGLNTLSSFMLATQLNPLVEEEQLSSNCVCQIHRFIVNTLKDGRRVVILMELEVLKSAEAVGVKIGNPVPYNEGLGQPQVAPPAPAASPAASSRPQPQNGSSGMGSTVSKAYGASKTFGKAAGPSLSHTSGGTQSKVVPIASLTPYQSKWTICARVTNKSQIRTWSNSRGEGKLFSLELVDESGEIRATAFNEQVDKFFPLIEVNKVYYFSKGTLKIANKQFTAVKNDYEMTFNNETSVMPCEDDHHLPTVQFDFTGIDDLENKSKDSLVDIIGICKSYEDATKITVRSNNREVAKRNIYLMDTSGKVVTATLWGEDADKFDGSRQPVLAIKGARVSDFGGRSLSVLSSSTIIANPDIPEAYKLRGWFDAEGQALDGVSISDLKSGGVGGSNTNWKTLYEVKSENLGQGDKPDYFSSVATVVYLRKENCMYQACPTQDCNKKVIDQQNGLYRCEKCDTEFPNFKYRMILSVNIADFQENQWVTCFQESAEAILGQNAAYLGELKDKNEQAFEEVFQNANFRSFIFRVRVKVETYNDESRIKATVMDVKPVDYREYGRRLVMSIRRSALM
T2 sequence (P15927 whole entry, chain 2 of 3): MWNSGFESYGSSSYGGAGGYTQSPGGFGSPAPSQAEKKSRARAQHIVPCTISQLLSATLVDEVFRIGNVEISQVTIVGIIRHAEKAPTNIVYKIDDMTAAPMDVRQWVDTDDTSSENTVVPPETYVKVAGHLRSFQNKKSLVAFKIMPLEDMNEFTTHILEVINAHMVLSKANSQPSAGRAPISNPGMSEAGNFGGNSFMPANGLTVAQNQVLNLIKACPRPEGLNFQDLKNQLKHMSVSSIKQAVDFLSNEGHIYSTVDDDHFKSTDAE
T2 sequence (P35244 whole entry, chain 3 of 3): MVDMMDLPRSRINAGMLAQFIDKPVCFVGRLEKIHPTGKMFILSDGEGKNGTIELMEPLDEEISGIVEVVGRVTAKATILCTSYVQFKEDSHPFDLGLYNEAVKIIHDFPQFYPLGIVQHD
T1 sequence (P27694 whole entry): as the sequence (P27694 whole entry, chain 1 of 3) above
T1 sequence (P15927 whole entry partner): as the sequence (P15927 whole entry, chain 2 of 3) above
T1 sequence (P35244 2-121 partner): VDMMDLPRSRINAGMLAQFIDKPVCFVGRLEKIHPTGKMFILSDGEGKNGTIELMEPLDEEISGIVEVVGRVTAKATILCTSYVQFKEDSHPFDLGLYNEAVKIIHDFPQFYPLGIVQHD
Sequence of RPA1 DBD-F, unmodified (P27694 1-180): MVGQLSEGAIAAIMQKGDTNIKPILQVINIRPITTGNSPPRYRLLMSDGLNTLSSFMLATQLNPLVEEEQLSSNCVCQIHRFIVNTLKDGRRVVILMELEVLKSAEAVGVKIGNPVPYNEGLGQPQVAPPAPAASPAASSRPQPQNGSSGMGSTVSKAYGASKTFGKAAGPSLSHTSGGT
Sequence of FEN1 (P39748 whole entry): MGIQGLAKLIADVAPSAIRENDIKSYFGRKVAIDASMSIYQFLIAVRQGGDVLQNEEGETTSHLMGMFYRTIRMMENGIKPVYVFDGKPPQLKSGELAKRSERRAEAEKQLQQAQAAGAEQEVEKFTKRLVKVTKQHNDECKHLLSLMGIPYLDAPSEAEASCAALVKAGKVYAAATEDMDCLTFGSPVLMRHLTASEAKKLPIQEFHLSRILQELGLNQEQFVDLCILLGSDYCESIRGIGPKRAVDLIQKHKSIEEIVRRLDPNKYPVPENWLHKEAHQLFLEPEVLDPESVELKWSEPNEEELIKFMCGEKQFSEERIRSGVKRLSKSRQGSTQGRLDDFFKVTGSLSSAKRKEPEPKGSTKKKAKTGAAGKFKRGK

Regarding `CCOc1ccc2cc(C3CC(c4ccc(I)cc4)=NN3C(=O)CCCC(=O)O)c(Cl)nc2c1` (stereo not shown) [TDRL-551], in data set [1], the IC50 came out at 4.46 ± 0.11 µM.

In data set [1], DA1-73 returned an IC50 of 6.43 ± 0.29 µM.

B1: LB.30 (30 nt) (ssDNA)
DNA: TTCACGAGATTTACTTATTTCACTGCGGCT
With B1, the binding result in the data set with RPA1 DBD-F, unmodified is “no binding”.

B2: 20 nt double flap (U26:D43:T49) (structured_DNA)
DNA 1: GCCCAGTCACGTCGTTGTAAAACGGGTCGTGACTGGGAAAACCCTGGCG
DNA 2: TTAGTTAATTCACTGGCCGTCGTTTTACAACGACGTGACTGGG
DNA 3: CGCCAGGGTTTTCCCAGTCACGACCA
Consider B2, for which the binding result with FEN1 is “binds”.

B3: LB.45 (45 nt) (ssDNA)
DNA: TTCACTATAACTACCTAATCTTCTGGCCGTACTGAACTACTGACA
In the case of B3, the binding result in data set [2] is “binds”.

B4: LB.28 (28 nt) (ssDNA)
DNA: TTCACGCCTGTTAGTTAATTCACTGGCC
For B4, in data set [3], the binding result is recorded as “binds”.

B5: LB.32 (32 nt) (ssDNA)
DNA: TTCACGCCTGTTAGTTAATTCACTGGCCGTAC
Regarding B5, the binding result in data set [3] is “binds”.
